Source: publication PMC3515695 (Nature structural & molecular biology, 2012)

Target: the molecule itself
Assay: SAXS

B1: full-length Caenorhabditis elegans TDP2 (enzyme, UniProt Q9XWG3 1-362, looked up)
chain: MSNSDDEIQEIEAKRQKMSQEDSEVEIEILDEPEQGKLKNSSMSDEQKLHEFAIITATDEAFAQSILQDVDWDLKKALDVFYGSEAFAEARSAAVMGASSSMASSGAAVMTAEDLKGFEVSVMSWNIDGLDGRSLLTRMKAVAHIVKNVNPDILFLQEVVDRDLAPIDKLQSLYKIYYSNKGCQYYTAILVSKMFDVEKHDVIHFQNSGMYRTLQILEGSIGGLKVFLLNTHLESTREHRPQRCAQFGFCMDKVREIIAQNPGALVFFGGDLNLRDEEVSRVPDGVKDAWEAAGSDNKTKFTWDTFKNDNKQGFHGAKMRFDRLYWSGPLDKVKFTLEGRQRIRSCLCFPSDHWAINATFFA
- stoichiometry N: 2
